The values that follow come from patent US20260124303A1 (MINK THERAPEUTICS, published 2026).

Assay [1] deals with T1, human FAP (fibroblast activation protein) (human, UniProt Q12884 26-760, limits assumed).
T1 construct: Protein immobilised on the CM5 chip or premixed with Fab in SPR; also called huFAP; hFAP
T1 sequence: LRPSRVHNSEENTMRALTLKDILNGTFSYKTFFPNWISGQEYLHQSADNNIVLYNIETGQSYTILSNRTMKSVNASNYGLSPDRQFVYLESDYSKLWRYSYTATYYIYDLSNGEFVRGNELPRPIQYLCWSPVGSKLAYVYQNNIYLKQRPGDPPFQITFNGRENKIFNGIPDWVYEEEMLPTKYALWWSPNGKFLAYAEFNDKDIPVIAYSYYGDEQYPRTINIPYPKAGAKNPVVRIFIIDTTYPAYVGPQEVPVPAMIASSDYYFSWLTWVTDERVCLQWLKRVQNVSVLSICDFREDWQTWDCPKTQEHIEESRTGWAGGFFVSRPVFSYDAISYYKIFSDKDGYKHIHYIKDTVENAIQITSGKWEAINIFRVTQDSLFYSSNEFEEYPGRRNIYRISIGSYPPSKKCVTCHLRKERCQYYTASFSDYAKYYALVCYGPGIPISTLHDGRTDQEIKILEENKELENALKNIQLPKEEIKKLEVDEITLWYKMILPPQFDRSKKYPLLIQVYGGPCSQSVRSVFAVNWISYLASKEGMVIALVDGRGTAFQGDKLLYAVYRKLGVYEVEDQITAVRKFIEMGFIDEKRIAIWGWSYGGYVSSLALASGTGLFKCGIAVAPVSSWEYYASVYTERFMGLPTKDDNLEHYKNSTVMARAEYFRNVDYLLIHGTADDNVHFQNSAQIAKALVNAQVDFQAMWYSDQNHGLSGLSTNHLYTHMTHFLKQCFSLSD
The assay can be described thus: SPR (Biacore), human FAP immobilised on CM5 chip by amine coupling, Fab as analyte, 2-fold dilution series from 500 nM. How it is done: (§1) 2.5 μg/mL human FAP was immobilized to flow cells 1-4 on CM5 chip by amine coupling. […] 5 μg/mL mouse FAP was immobilized to flow cells 5-8 on CM5 chip by amine coupling. […] Regeneration was done with 2.5 mM NaOH, 1M NaCl.

The target of the next assay is T2, mouse FAP (mouse, UniProt P97321 26-761, limits assumed).
T2 construct: Protein immobilised on the CM5 chip in SPR
T2 sequence (looked up): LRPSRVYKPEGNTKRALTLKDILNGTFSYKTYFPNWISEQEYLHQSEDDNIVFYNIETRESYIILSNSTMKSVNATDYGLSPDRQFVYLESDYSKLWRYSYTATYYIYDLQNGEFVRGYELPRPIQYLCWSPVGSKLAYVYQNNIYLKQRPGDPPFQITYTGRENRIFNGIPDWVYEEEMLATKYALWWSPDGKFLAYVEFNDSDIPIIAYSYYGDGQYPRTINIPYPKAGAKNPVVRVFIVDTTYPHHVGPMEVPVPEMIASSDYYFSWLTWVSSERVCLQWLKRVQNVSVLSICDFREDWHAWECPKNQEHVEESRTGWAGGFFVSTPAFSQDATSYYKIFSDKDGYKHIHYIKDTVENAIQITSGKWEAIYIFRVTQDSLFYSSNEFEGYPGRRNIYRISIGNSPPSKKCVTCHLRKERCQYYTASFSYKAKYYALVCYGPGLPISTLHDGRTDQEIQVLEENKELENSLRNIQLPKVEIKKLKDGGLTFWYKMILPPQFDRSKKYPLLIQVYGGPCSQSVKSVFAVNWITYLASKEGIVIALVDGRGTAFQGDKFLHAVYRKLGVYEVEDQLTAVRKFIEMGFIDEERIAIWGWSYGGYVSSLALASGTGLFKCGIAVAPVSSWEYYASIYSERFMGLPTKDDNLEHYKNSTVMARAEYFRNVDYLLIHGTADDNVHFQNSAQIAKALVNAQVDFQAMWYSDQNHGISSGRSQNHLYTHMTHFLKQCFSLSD
The assay can be described thus: SPR (Biacore), mouse FAP immobilised on CM5 chip by amine coupling, Fab as analyte, 2-fold dilution series from 500 nM. As to the method: as §1
(In general: SPR reads the build-up and loss of mass on a sensor chip optically.)

The target of the next assay is T3, human DPP4 (human, UniProt P27487 1-766).
T3 construct: whole, on cells; Transiently expressed in HEK cells; also called hDPP4; dipeptidyl peptidase IV
The assay can be described thus: IgG staining of HEK cells transiently expressing the construct. The source says: The constructs were designed on the DPP4 backbone and different FAP fragments were introduced to replace the corresponding DPP4 fragment as shown in FIG. 13D. BFP was used as a marker of transfection and His-tag to confirm expression.
The constructs were transiently expressed in HEK cells and the different IgGs were used to stain the cells.

T3 sequence (P27487 whole entry): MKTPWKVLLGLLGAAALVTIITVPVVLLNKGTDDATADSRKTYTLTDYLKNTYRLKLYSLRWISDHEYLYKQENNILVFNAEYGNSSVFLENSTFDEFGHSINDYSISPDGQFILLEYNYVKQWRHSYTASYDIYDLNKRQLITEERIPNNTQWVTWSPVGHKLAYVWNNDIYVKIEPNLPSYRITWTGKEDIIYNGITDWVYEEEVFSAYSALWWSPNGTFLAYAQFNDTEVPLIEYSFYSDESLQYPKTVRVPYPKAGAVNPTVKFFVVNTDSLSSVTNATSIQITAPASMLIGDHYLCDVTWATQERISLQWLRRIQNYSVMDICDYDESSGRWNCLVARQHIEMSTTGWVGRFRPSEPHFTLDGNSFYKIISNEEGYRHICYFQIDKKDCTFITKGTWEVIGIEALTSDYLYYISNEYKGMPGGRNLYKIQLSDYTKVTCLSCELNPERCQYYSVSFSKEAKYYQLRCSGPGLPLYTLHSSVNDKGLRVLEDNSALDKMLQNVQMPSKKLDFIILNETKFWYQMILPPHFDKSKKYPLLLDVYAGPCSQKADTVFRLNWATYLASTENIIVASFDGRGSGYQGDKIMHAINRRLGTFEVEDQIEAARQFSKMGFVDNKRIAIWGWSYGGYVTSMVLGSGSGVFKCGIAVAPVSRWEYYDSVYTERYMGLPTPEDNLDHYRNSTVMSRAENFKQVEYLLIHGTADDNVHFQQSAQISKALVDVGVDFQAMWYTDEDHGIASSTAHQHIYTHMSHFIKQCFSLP

B1: A07 Fab (Fab, V domains shown)
VH: QVQLVQSGAEVKKPGSSVKVSCKASGGTFSSYAISWVRQAPGQGLEWMGGIIPIFGTANYAQKFQGRVTITADESTSTAYMELSSLRSEDTAVYYCASPRDCSSTSCYAGIDAFDIWGQGTMVTVSS
VL: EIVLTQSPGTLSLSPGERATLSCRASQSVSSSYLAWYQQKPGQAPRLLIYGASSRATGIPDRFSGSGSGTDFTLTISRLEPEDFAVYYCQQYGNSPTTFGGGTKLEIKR
Take B1: the Kd was found to be 757 nM in assay [1] and 330 nM with mouse FAP.

B2: E07 IgG (antibody, V domains shown)
VH: EVQLLESGGGLVQPGGSLRLSCAASGFTFKSYVMSWVRQAPGKGLEWVSAIVPSGGDTYYADSVKGRFTISRDNSKNTLYLQMNSLRAEDTAVYYCAKDYYGGWFDPWGQGTLVTVSS
VL: not shown
Consider B2, for which the binding result with human DPP4 was “no binding”.

The Kd is the free concentration of one partner at which half of the binding sites on the other are occupied at equilibrium, for simple one-to-one binding. Read a low Kd as higher affinity.
